Literature values in article PMC4216181 (Journal of nuclear medicine : official publication, Society …, 2009).

Target: HER2 (Homo sapiens, UniProt P04626)
Conditions: read-out: dissociation constant [KD]; HER2, nonmodified 2-helix protein; cited from earlier work

In the case of “[homoC]NKEMRNRYWEAALDPNLNNQQK-RAKIRSIYDDP[homoC]-NH2 (disulfide) [MUT-DS]”, the Kd is given as 5 nM.
